Measurements from the Human Domainome abundance scans (Beltran et al. 2025).

B1: Zinc finger MYM-type protein 3, residues 589 to 668; numbered along this chain, Q14202 (parent)
chain: LSCHYCHSLFSGKPEVLDWQDQVFQFCCRDCCEDFKRLRGVVSQCEHCRQEKLLHEKLRFSGVEKSFCSEGCVLLYKQDF

Variants of: B1
Assay: abundance fitness (aPCA) (normalised: wild type 0, dead -1); higher = more abundant; growth selection in yeast, the domain comes from the species named
Conditions: Homo sapiens

Abundance fitness, by site and new letter:
Q20: F 0.198; A 0.265; V 0.032; R 0.151; N 0.348; S 0.245; E 0.492; M 0.394; L 0.08; D 0.456; H -0.021; K 0.456; P 0.179; W 0.014; G 0.334; Y -0.3
F24: D -0.376; N 0.001; P -0.383; G -0.136; E -0.143; K 0.084; I 0.072; W 0.051; C 0.112; V 0.133; L 0.203; Q -0.038; T -0.033
Q22: E 0.313; M 0.309; W -0.054; R 0.165; C 0.117; N 0.255; T 0.174; I -0.068; Y 0.101; G 0.253; A 0.26; L 0.063; D 0.297; V 0.288; K -0.075; S 0.24; P -0.071; F 0.047; H 0.269
V23: L 0.155; M 0.338; E 0.227; D -0.085; W 0.134; S 0.287; G -0.003; Y -0.164; Q 0.246; N 0.169; C 0.236; K 0.268; H 0.111; A 0.023; R 0.294; T 0.175
V16: Q 0.003; P -0.099; R 0.004; E -0.072; Y -0.041; H -0.044; G -0.208; M 0.022; W -0.206; I -0.121; D -0.702; L -0.065; T -0.03; S 0.011; K -0.11; N -0.033; C -0.003; F -0.229
C28: S -0.021; T 0.11; A 0.017; L -0.758; E -0.228; Q 0.087; Y -0.557; G 0.08; V -0.321; I -0.703; D 0.041; N -0.16; F -0.83; M 0.129; H -0.081; W -0.973; K 0.105; P -0.607; R 0.074
C27: A -0.673; F -0.607; E -0.721; Q -0.653; K -0.882; V -0.692; W -0.859; P -0.483; Y -0.798; L -0.89; H -0.517; G -0.572; N -0.706; R -0.756; M -0.472; D -0.352; I -0.752; S -0.892
L17: N -0.53; H -0.017; C -0.077; T -0.06; P -0.311; E -0.146; V -0.027; A -0.035; R -0.348; D -0.332; Y -0.202; F -0.079; S -0.262; K -0.359; Q -0.015; M 0.043; W -0.135; I -0.009; G -0.135
K13: H -0.043; F -0.135; V -0.169; S -0.062; M -0.444; G -0.162; Y -0.389; I -0.098; Q 0.039; E -0.001; T -0.081; A -0.037; R 0.05; D 0.019; N -0.198; P 0.042; C -0.117; L -0.048
C31: E -0.573; A -0.655; D -0.545
R29: E 0.013; P 0.068; F 0.095; W -0.049; Y 0.26; T -0.002; H 0.275; G 0.008; D 0.082; K 0.002; A 0.069; S 0.009; N 0.206; C 0.08; I 0.014; M 0.235
P14: D -0.24; A -0.223; T -0.381; L -0.523; N -0.153; C -0.6; M -0.169; I -0.264; Q -0.39; V -0.246; W -0.528; R -0.459; S -0.386; F -0.371; G -0.206; H -0.212; E -0.309
D18: S 0.017; F -0.101; K -0.028; Y -0.127; P 0.236; I -0.039; H -0.08; M 0.175; Q 0.067; V -0.073; E -0.06; C -0.107; N 0.138; G -0.083; L 0.036; R 0.155; A -0.007
F26: T -0.489; G -0.603; I -0.731; P -0.664; R -0.603; E -0.506; Y -0.409; K -0.524; Q -0.482; V -0.515; M 0.134; H -0.666; D -0.657; C -0.444; W -0.522; N -0.391; A -0.49
D30: E 0.014; F -0.263; I -0.243; L -0.012; W -0.227; K 0.104; A 0.027; V 0.109; Y -0.164; G 0.057; T 0.131; N -0.069; M 0.3; Q -0.036; S 0.055; C 0.008
E15: Q -0.086; I 0.093; F -0.049; L -0.014; K -0.46; H -0.017; V 0.057; T 0.076; C 0.008; N -0.015; D -0.155; W -0.033; M 0.152; S -0.108; A -0.075; G -0.56
D21: T 0.004; H -0.182; K 0.086; N 0.027; M 0.068; P -0.146; V -0.355; G -0.114; E -0.114; Q 0.033; Y -0.386; R -0.075; C -0.204; S -0.065
G12: S -0.038; R -0.145; K -0.02; T 0.039; M -0.143; D -0.274; A 0.013; P -0.227; L -0.261; I -0.395; Y -0.75; W -0.27; Q -0.003; H -0.15; V -0.267; F -0.384; E 0.034; N -0.187; C -0.272
Q25: S 0.016; Y 0.025; V 0.032; D 0.085; W 0.033; C -0.081; I -0.084; H 0.122; L -0.163; M 0.198; K 0.113; A -0.044; G 0.088; E 0.226; F -0.035
W19: A 0.175; P 0.224; R 0.157; N 0.225; K 0.183; I 0.234; G 0.105; H 0.137; C 0.276; E 0.201; L 0.332; Y 0.269; S 0.365; D -0.035; T 0.326; Q 0.225; V 0.167; F 0.364; M 0.48
S11: R -0.406; Q -0.275; T -0.155; W -0.565; I -0.312; M -0.426; L -0.374; P -0.454; V -0.418
